Source: patent US20260061042A1, “POLYNUCLEOTIDE COMPOSITIONS AND USES THEREOF” (Pfizer Inc., priority 2024, published 2026)
Entries after “also recorded” stand apart in the source; their conditions may differ.

B1: BMD576_PapG-DSF K172A_Thy1-GPI: monovalent PapG modRNA LNP; RNA construct SEQ ID NO: 66 (nucleic acid)
chain: AGGAGGACUGGUCGAACCUGCAUAGUGAUCAUAAGGUCAGCAUAGCCACCAUGGAGACCGACACCCUCCUGCUGUGGGUGCUGUUACUGUGGGUGCCCGGUAGCACCGGCUGGAACAACAUCGUGUUCUACAGCCUGGGCAACGUGAACAGCUACCAAGGCGGCAACGUGGUGAUCACACAGAGACCUCAGUUCAUCACAAGCUGGAGACCCGGCAUCGCCACCGUGACCUGGAAUCAGUGCAACGGCCCCGAGUUCGCCGACGGCAGCUGGGCCUACUACAGAGAGUACAUCGCCUGGGUGGUGUUCCCCAAGAAGGUGAUGACCAAGAACGGCUACCCCCUGUUCAUCGAGGUGCACAACAAGGGCAGCUGGAGCGAGGAGAACACCGGCGACAGCGACAGCUACUUCUUCCUGAAGGGCUACAAGUGGGACGAGAGAGCCUUCGACGCCGGCAACCUGUGUCAGAAGCCGGGGGAGACCACAAGACUUACCGAGAAGUUCAACGACAUCAUCUUCAAGGUGGCCCUGCCCGCCGACCUGCCCCUGGGCGACUACAGCGUGACCAUCCCCUACACAAGCGGCAUUCAGAGACACUUCGCUAGCUACCUGGGCGCUAGAUUCGCCAUCCCCUACAACGUGGCCAAGACCCUGCCUAGAGAGAACGAGAUGCUGUUCCUGUUCAAGAACAUCGGCGGCUGCAGACCUAGCGCUCAGAGCCUGGAGAUCAAGCACGGCGACCUGAGCAUCAACAGCGCCAACAACCACUACGCCGCUCAGACCCUGAGCGUGAGCUGCGACGUGCCCGCCAACAUCAGAUUCAUGCUGCUGAGAUCAACCACCCCCACCUACAGCCACGGCAAGAAGUUCAGCGUGGGCCUGGGCCACGGCUGGGACAGCAUCGUGAGCGUGAACGGCGUGGACACGGGCGAGACCACUAUGCGUUGGUACAAGGCCGGCACACAGAGCCUGACCAUCGGCAGCAGACUGUAUGGCGAAAGCUCCAAAAUCCAACCCGGCGUGCUGUCGGGGAGCGCCACCCUGCUGAUGAUACUGCCCGGAGGCAGCAGCGGCGGCGCCGACGUGCAGAUCAACAUCAGAGGCAACGUGUAUAUUCCGCCUAGCAGUGGUGGUGGGGGUAGCUCCGGCUCCGGAAGCAGCUGCGAGGGCAUCAGCCUGCUGGCUCAGAACACAAGCUGGCUGCUGCUGCUGCUGCUGAGCCUGAGCCUGCUGCAAGCCACCGACUUCAUGAGCCUGUGAUGAGCUCGCUUUCUUGCUGUCCAAUUUCUAUUAAAGGUUCCUUUGUUCCCUAAGUCCAACUACUAAACUGGGGGAUAUUAUGAAGGGCCUUGAGCAUCUGGAUUCUGCCUAAUAAAAAACAUUUAUUUUCAUUGCAAAAAAAAAAAAAAAAAAAAAAAAAAAAAAAAAAAAAAAAAAAAAAAAAAAAAAAAAAAAAAAAAAAAAAAAAAAAAAAAAA
modifications: modRNA in LNP
B2: PapG^LD N96S G104A: PapG lectin domain N96S with G104A ligand binding site mutation; SEQ ID NO: 16 (protein)
chain: METDTLLLWVLLLWVPGSTGWNNIVFYSLGNVNSYQGGNVVITQRPQFITSWRPGIATVTWNQCNGPEFADGSWAYYREYIAWVVFPKKVMTKNGYPLFIEVHNKGSWSEENTGDSDSYFFLKAYKWDERAFDAGNLCQKPGETTRLTEKFNDIIFKVALPADLPLGDYSVTIPYTSGIQRHFASYLGARFKIPYNVAKTLPRENEMLFLFKNIGG
B3: PapG^LD N96S G122A: PapG lectin domain N96S with G122A putative conformation stabilizing mutation; SEQ ID NO: 20 (protein)
chain: METDTLLLWVLLLWVPGSTGWNNIVFYSLGNVNSYQGGNVVITQRPQFITSWRPGIATVTWNQCNGPEFADGSWAYYREYIAWVVFPKKVMTKNGYPLFIEVHNKGSWSEENTGDSDSYFFLKGYKWDERAFDAGNLCQKPAETTRLTEKFNDIIFKVALPADLPLGDYSVTIPYTSGIQRHFASYLGARFKIPYNVAKTLPRENEMLFLFKNIGG
B4: PapG^LD N96S WTv1: WT PapG lectin domain (V1, first PapG operon), N96S removes non-native glycosylation, His-tagged; SEQ ID NO: 13 (protein)
chain: METDTLLLWVLLLWVPGSTGWNNIVFYSLGNVNSYQGGNVVITQRPQFITSWRPGIATVTWNQCNGPEFADGSWAYYREYIAWVVFPKKVMTKNGYPLFIEVHNKGSWSEENTGDSDSYFFLKGYKWDERAFDAGNLCQKPGETTRLTEKFNDIIFKVALPADLPLGDYSVTIPYTSGIQRHFASYLGARFKIPYNVAKTLPRENEMLFLFKNIGG
modifications: His tag
B5: PapG^DSF N96S N242S N286S: Full-length donor strand complemented PapG, fully aglycosylated at N96S, N242S and N286S, His-tagged (protein)
chain: WNNIVFYSLGNVNSYQGGNVVITQRPQFITSWRPGIATVTWNQCNGPEFADGSWAYYREYIAWVVFPKKVMTKNGYPLFIEVHNKGSWSEENTGDSDSYFFLKGYKWDERAFDAGNLCQKPGETTRLTEKFNDIIFKVALPADLPLGDYSVTIPYTSGIQRHFASYLGARFKIPYNVAKTLPRENEMLFLFKNIGGCRPSAQSLEIKHGDLSINSANNHYAAQTLSVSCDVPANIRFMLLRSTTPTYSHGKKFSVGLGHGWDSIVSVNGVDTGETTMRWYKAGTQSLTIGSRLYGESSKIQPGVLSGSATLLMILPGGSSGGADVQINIRGNVYIPP

Assays:
[1] = test system: E. coli strain CFT073 expressing the fimbrial adhesin PapG; assay: PapG hemagglutination inhibition (HAI) assay on sera of mice immunized with PapG modRNA LNPs; format: in vivo; settings: 1 μg, 50 μl IM
Source text: Escherichia coli to the uroepithelium of human kidney. The PapG lectin binds to the globoside (GbO4) glycolipid, which is enriched in urinary tract tissue and consists of the tetrasacharide GalNAcβ1-3Galα1-4Galβ1-4Glc linked to ceramide. Here we present the use of a hemagglutination inhibition assay (HAI) to determine vaccine functional responses to protein subunit PapG or mRNA-expressed PapG antigens. In this assay the agglutination of human red blood cells (hRBCs) expressing GbO4 is caused by live E. coli CFT073 bacteria expressing PapG. The HAI assay measures the ability of PapG-elicited antibodies to prevent hRBC agglutination, exemplifying inhibition of the key bacterial adherence mechanism leading to clinical pyelonephritis. The assay was used to characterize the functional activity of PapG monoclonal antibodies (mAbs) raised against a PapG lectin domain subunit antigen. PapG HAI data from a mouse immunogenicity study are described that evaluated various 5 monovalent PapG modRNA LNPs and a PapG subunit comparator.
In this mouse study immunogenicity of different PapG mRNA constructs were evaluated. […]
iii. PapG Hemagglutination Inhibition Assay (HAI) 1. Preparation of Single Use Frozen E. coli CFT073 Banks Frozen bacterial stocks for use in the PapG HAI are stored at a concentration of ˜15 OD/mL. For stock preparation, take 6 ×100 μL of frozen parental strain CFT073 glycerol stock to seed six overnight cultures with ˜85 mL Luria's Broth (LB) each in 250 mL vented flasks. Flasks are shaken at 200 rpm and 37° C. overnight. On the same day, prepare 100 mL LB media with 30% glycerol and 0.4% sucrose by mixing […] 80% Glycerol with 0.8 mL 50% Sucrose in 64 mL LB and pre-chill at 4° C. After ˜16 h growth, determine the OD600 nm of each flask with the SpectraMax M5e plate reader by adding 100 μL culture to 900 μL LB (1:10 dilution). After reading the OD600, harvest cells by pelleting in a centrifuge at 4,000g, 4° C., for 30 minute. Determine the total OD of each of the six flasks, by multiplying the volume by OD/mL of each flask and divide by 15 OD to give the appropriate pellet resuspension volume. Discard supernatants and resuspend all pellets in the pre-chilled LB cryopreservant containing 30% glycerol and 0.4% sucrose, with a final volume as calculated above. Pool all resuspended pellets and mix gently, then aliquot into 1 mL/cryotube, and freeze at −70° C.
2. Preparing 10% hRBC Working Solution From Stock
Gently mix human red blood cells (hRBC) bottle (Rockland) by rocking ˜20×times, pipet out 10 mL of the hRBCs into a 15 ml conical tube. Centrifuge at 2,000 rpm(˜990×g) for 10 minutes and 4° C. Aspirate and discard the supernatant, then resuspend the pellet with 9 mL 4° C. PBS. The packed hRBCs in 15 mL conical tube should constitute roughly 1 mL of this total volume. Store these 10% hRBCs at 4° C. until use. […]
iv. PapG Hemagglutination Inhibition (HAI) Assay
The PapG hemagglutination inhibition (HAI) assay uses human red blood cells (hRBCs), which naturally express the PapG ligand GbO4 (globotetraosyl ceramide) on the cell surface, and the E. coli strain CFT073 expressing the fimbrial adhesin PapG. Upon mixing bacteria with hRBCs, […] cells remain suspended (presenting as a cloudy well), while no binding results in the red blood cells falling out of solution towards the center of the well (observed as pellet).
The total final well volume is 100 μL, with serum dilutions comprising 25 μL of this volume, strain CFT073 cells in […] volume, and hRBCs in a 50 μL volume. The assay plate is a V-bottom plate to which 25 μL 4° C. PBS is initially added to all wells. The positive control wells receive an additional 25 μL 4° C. PBS. The no-serum negative control consists of E. coli CFT073 cells plus hRBCs only (resulting agglutinated well appears cloudy). To accommodate pre-diluted sera transferred from the serum Master Dilution plate (MDP) an extra 5 μL 4° C. PBS is added to wells in Row A of the assay plate (columns 1 to 12). […]

[2] = PapG Luminex ligand binding assay with globoside GbO4; settings: result in words
Protocol: 9. PapG Ligand Binding Assay with Globoside GbO4
To determine the ability of PapGLD mutants to bind the porcine derived globotetraosyl ceramide ligand GalNAc-Gal-Gal-Glc-ceramide (GbO4), a Luminex ligand binding assay was developed. Surfactant Protein-A (SP-A) was coupled to the surface of MagPlex beads by EDC/NHS, to capture the lipid tail of the globotetraosyl ceramide. The Globotetraosyl ceramide/SP-A beads were incubated with an eight-point threefold titration of PapG in a 96 well flat bottom white plate with final volume of 100 microliters of 50 mM HEPES PH 7.4, 10 mM NaCl, 0.0005% Tween 20 shaking at 300 rpm, 4° C. overnight. After 20-24 hours the ligand binding plates were read on a FlexMap 3D plate reader for measurement of well-bead region specific MFI. Ligand binding equilibrium dissociation constants (Kd) were calculated assuming one site specific binding and interpolated using non-linear curve fitting (GraphPad Prism) as the ligand concentration needed to achieve half-maximal binding. The Luminex derived apparent Kd values are based on approximately fifty bead counts per assay sample.
Binding of PapG proteins to GbO2 or GbO4 ligands was evaluated using a Luminex platform wherein ligands were coupled to MagPlex beads via surfactant protein A (for […]) or directly using […] conjugation (for […]). This assay was used to rank order binding affinities of the mutants, reported as Kd values interpolated from protein antigen titration curves (Table 7).

[3] = Thermal shift (SYPRO orange) melting temperature, apo form; format: physicochemical; settings: apo state, PBS pH 7.4
Protocol: PapG proteins were added to assay buffer (consisting of 4% DMSO, 1:1000 dilution of SYPRO orange (Invitrogen S6650) in PBS pH 7.4) at a final concentration of […]. Melt curves were analyzed in a QuantStudio 6 Real-time PCR system (ThermoFisher) using a dissociation protocol from 25° C. to 99° C., at 0.05° C./second. ROX was specified as the reporter.
The thermal stability of PapG WT and mutant proteins were determined using a SYPRO orange thermal shift-based differential scanning fluorimetry assay, wherein Tm designates the temperature at which 50% of the protein is unfolded. Non-covalent ligands often stabilize protein targets upon specific binding, resulting in an increase in protein melting temperature. Tm were therefore determined in the presence and absence of GbO3 for PapG, and the difference in Tm (ΔTm) of protein in the presence of ligand relative to the apo form was calculated.

Molecule | Step Titer GMT (HAI) ([1]; weeks 0, 4, bleed week 6, GMT of individual titers) | Step Titer Pool (HAI) ([1]; weeks 0, 4, bleed week 6, serum pool) | binding to GbO4 ligand [2] | Tm (Ave.) [3]
B1 | 85,681 | 81,000 |  | 
B2 |  |  | prevent binding to GbO4; also recorded: lower the binding affinity; also recorded: eliminate ligand binding | 64.54 °C
B3 |  |  | reduced binding | 
B4 |  |  |  | 61.29 °C
B5 |  |  |  | 61.82 °C
